These results are taken from the DeepSol protein solubility set.

The nature of the data set: soluble on expression in E. coli; label from the status in PepcDB or PDB records.
Turning to “MSSLPETLMNRLHDHERLTQNEGEALYDLDLFTLGREADRRRVKKHGKKVFFNSNRHINPTNICQDICKFCAFSSHRKNPNPYAMSIDEILEIAKESTALGARELHVVSAHNPNYGYQWYGEMFKTIKEALPHIHLKAMTAAEVDFLSRRFEKPYEQVLEDMLLWGVDSMPGGGAEIFDEEVRARLCGGKVSSGRWLEIHGYWHSLGKQSNATMLFGHIENRTHRIDHMLRLRELQDRYGGFNAFIPLLYQKENNFLKVERFPTGQEILKTLAISRILLDNIPHIKAYWATLGLNLAMVAQEFGADDLDGTIQKESIQSAAGSGSGHGVSKEELIFQIKDAGFIPVERDSLYNEIQIYA”, the “soluble on expression in E. coli” value was “not soluble”. Take “MSSNCTSTTAVAVAPLSASKTKTKKKHFVCQKVKLFRASEPILSVLMWGVNHTINELSNVPVPVMLMPDDFKAYSKIKVDNHLFNKENLPSRFKFKEYCPMVFRNLRERFGIDDQDYQNSVTRSAPINSDSQGRCGTRFLTTYDRRFVIKTVSSEDVAEMHNILKKYHQFIVECHGNTLLPQFLGMYRLTVDGVETYMVVTRNVFSHRLTVHRKYDLKGSTVAREASDKEKAKDLPTFKDNDFLNEGQKLHVGEESKKNFLEKLKRDVEFLAQLKIMDYSLLVGIHDVDRAEQEEMEVEERAEDEECENDGVGGNLLCSYGTPPDSPGNLLSFPRFFGPGEFDPSVDVYAMKSHESSPKKEVYFMAIIDILTPYDTKKKAAHAAKTVKHGAGAEISTVNPEQYSKRFNEFMSNILT”: the “soluble on expression in E. coli” value is “soluble”. For the sequence “MSSNLQLVETFDSRQFVVARWNRNDTTAMVPSAIAVVVFVESVEYKLGCKEKIGYSPTPEDQDQFMILQMESIDEANRICHDSIAKGFAINNTKIVFTPLLGLNGFRLQDAIDFMKTSQPHFNNDELLEVLTMAICQELPERLKILEDGFSFIEQGVSELIQNSACEMFGSFASPVRRNGYSDIDINVESVSAPGQRVSTNVRPLNEVVANPKCLITHPLTKSELETYPQEEIIKILYRCFNENSAFKTKFEMRFLPARTPIIVFKNIEVEGMNVSYDLSVHNQISVEKASLLHEFIVKDKSKGSRMKNAMMFIVHWAKSNKLLSGDYPEEKLEVKTKLNSYIINQLVIHFVQAATNKVHVNPQAKRDSRVNEYNFDTLFGDYCKFFRELFKYYANFDFTNKAIYGKKAMQKKTLSSAHGGVEESPLMLMDPMDITHNISAKVTEDAVKLLNGLIRNALFILKQNHFHINYLLETNTMATMLMKSREPKISISTRVTDGAEHQYLSVQLPAVVITSSDLFLLLTRVLRFNVCPNEQGPSVVDLCTPTGAIFLVTSRAWVGRRNTKRALKNSRHDLTPLQIDVMCSDKYDYEEDIAELRISMSTVPGTRIRLACIDIMRGQVSEVRDAIHFLIDQFINNNYDDLEKNGVQTISRIPIAAPTWP”, the “soluble on expression in E. coli” value is recorded as “not soluble”.

For “MSSQDVLIHSDDPCHPANLICTLCKQFFHNNWCTGTGGGISIKDPNTNYYYLAPSGVQKEKMIPEDLFVMDAQTLEYLRSPKLYKPSACTPLFLACYQKKNAGAIIHTHSQNAVICSLLFGDEFRIANIEQIKAIPSGKVDPVTKKPMALSFFDTLKIPIIENMAHEDELIDDLHKTFKDYPDTCAVIVRRHGIFVWGPTIDKAKIFNEAIDYLMELAIKMYQMGIPPDCGIGEEKKHLKMASP”, the “soluble on expression in E. coli” value is recorded as “soluble”. Next, “MSSRHRLDLDGSGRGDRRRSPNRRSRSRSRSPHRRSSPDRKRQIGAVGNMKIQINPYNNQPFSNRYWAIWEKRSQLPVWEYKEKFMELLRNNQCITLVGETGSGKTTQIPQWAVEFMKQQQQGQPPGQARLVACTQPRRVAAMSVATRVAEEMDVVLGQEVGYSIRFEDCISERTVLKYCTDGMLLREAMNSPLLDKYKVLILDEAHERTLATDILMGLIKEIVRNRADIKVVIMSATLDAGKFQRYFEDCPLLSVPGRTFPVEIFFTPNAEKDYLEAAIRTVIQIHMVEEVEGDILLFLTGQEEIEEACKRIDREIQALGADAGALSCIPLYSTLPPAAQQRIFEPAPPNRPNGAISRKCVISTNIAETSLTIDGVVFVIDPGFSKQKVYNPRIRVESLLVCPISKASAMQRAGRAGRTKPGKCFRLYTETAYGSEMQDQTYPEILRSNLGSVVLQLKKLGTEDLVHFDFMDPPAPETLMRALELLNYLQAINDDGELTELGSLMAEFPLDPQLAKMLITSTELNCSNEILSITAMLSVPQCWVRPNEMRTEADEAKARFAHIDGDHLTLLNVYHSFKQNQEDPQWCYDNFINYRTMKTADTVRTQLSRVMDKYNLRRVSTDFKSRDYYLNIRKALVAGFFMQVAHLERSGHYVTVKDNQLVNLHPSTVLDHKPEWALYNEFVLTTKNFIRTVTDVRPEWLLQIAPQYYDLDNFPDGDTKRKLTTVMQTLQRNAGRGY”: “soluble”; “MSSRLARFALSGYRIAGIAAYPFARPYLSYRAAKGKEDKRRRLERFGYASAERPRGPLVWFHAASVGETLALIPLIREIRKRDIFVLLTTGTVTSAELTRTRLGDDVIHQYVPLDIKIAVNRFLTYWAPDAAITAESEIWPVTMMELERRHIPQIRVNARLSDRSFDRWKARHDIAESLFSKLALVVAQSDLDAERFRDLGSWPVVISGNLKGDTDPPPCDEALLESYRKQVGNRKTWAAISTFDGEEKAAATVHAAIKSRNGQLTIIVPRHPERGDDVEAMLKGMNLSVARRSRNDVITPGTDIFLGDSIGEMGLYLRLTELAFVGRSLTAEGGQNPLEPAMLGCAVLSGAHVQNFREAYQKLIRAGGGRIIRDVEMLAKAVHYLLVNDNERYKMIDAGNRVIQDMRGALSSTVKALEPYINPLTVSAKLQPRSAIGSWLEHHHHHH”: “not soluble”. Next, “MSSSVLSVAKFDLKKMKTVYLKVDMEYDNRKNAALAILSKLSRDLLKICSNFGGCLARPQRDLCTIMLIIDSDKLENEHLVKHLKEHHMTAFEYIFTKKIKIQIGECFVQDGFLWWKQTNLPRIRNLKFRKKFKIKNKISEIHTHCSSEGNVYIKFSAEMIRIHPFDHWILDSDERFHDFNSGPISRRIRPRWVSCLPKLGKGRIVKIHRKIPETAPFESYDQMKSYWKKTKYEFVFQYGYDLPPSEPEVYYDVLFHNGETMLYPLYCVLTGTPEVLENRVGKTMTSEALALFLKAFKEASIVICGSVLAPEDQDCQAVKAYLDVMSMSAINSSKLKKEEKVTRKSSGGGHEEHQKPYEIRKIYPKIPVGVKRSISSSSQSGLPIVKKARPGFSVSVD”: “not soluble”; “MSSVLRLAMRAKGFSRFLAETQAFPVKNRHFMTSSVRKTGDFEYEDPKSEDEVVNITYVLRDGTERKIRGKVGDNVMFLAHRYDIEMEGACEASLACSTCHVYVDPAFQNKLPEPLEEEDDMLDMAPALKDNSRLGCQIVLTKELDGITVTLPTMTRNFYVDGHVPKPH”: “not soluble”; “MSSVPSAHSEIVGALYRDHRGWLLAWLRRNVACPQRAQDLSQDTFVRLLGRDELQLPREPRAFLATIAKGLMFDYFRRAALEQAYLGELLQVPEAEQPSPEEQLLILEDLKAIDRMLGTLSSKARAAFLYNRLDGLSHGEIAERLGVSVSRVRQYLAQAVRQCYVALYGEPT”: “not soluble”.

As to “MSTAFNNIRQGLSEAIAHAKGNVHGVRVHRPRQVDVKAVRAKVGMTQEQFAAQFGFSPATLRHWERGDRTPRGAALVLLNVIDRNPQAVIEALA”, the “soluble on expression in E. coli” value is given as “not soluble”. For “MSTATSKFLSYVLRHAPESIGLVLDSQGWADVADLLAKANASGTPLDEAGLRAVVAESDKKRFTLSEDGRRIRAAQGHSVKVDLGQPPVEPPPQLFHGTATRFLEPILREGLRPGERQQVHLSADRTTALAVGQRHGKPVVLIVDAGQMFADGCRFYLADNGVWLTDAVPFSYLTVSADSSAENDRLEHHHHHH”, the “soluble on expression in E. coli” value is given as “soluble”. With “MSTDPEEFDQAETLDQLAYEIILLTRYGVQNTPTNKREAIMDRSALILLTRLDAQGPMTVNELAESFGLNVSTVHRQLKAAIANGLIEVVDDQACPAKLHRPTELGKEKLQQELLARQQDLTRILHDWDEEDIKTHAKLLRKHNESLEEYLDMKWPRP”, the “soluble on expression in E. coli” value was “not soluble”. Take “MSTDPTPPQLTRRTAKVSIDNQTGSHFKFQVTHKYTGWDADKSDVVMFQPDEVKEIFKSVAYNTGFLTTGVDNWLVDGTMVQERTEVDNKGHQIGKKSYIEHAKFISDSRSWKQHMLTAEDDGKTTTIRVFPTEIHFISPSGESTTTFTKY”: the “soluble on expression in E. coli” value was “not soluble”. Next, “MSTETHYKRQLFVILKLFIIMSFMTKCPKCPTYESKKTTNVYRHLREVHNASEAEVDQFRIQRKEGKSLTTKGSGAWKCPVCELVIPTEKGLKNHMNQKHRKKPIDPSTITLATTSPTMVSPPPKRIQLPKSTEKSLVSSVATVRAQPTQKPGGRYKCPVENCTFFKTRKELALHFSEKHDPGSELETMSFETETEFKIWLTCRQEETCSSMQISLSSHDGNRITHFRLCRHEGGQLSLGATKKGATFELSLGATN”: “not soluble”; “MSTGDSFETRFEKMDNLLRDPKSEVNSDCLLDGLDALVYDLDFPALRKNKNIDNFLSRYKDTINKIRDLRMKAEDYEVVKVIGRGAFGEVQLVRHKSTRKVYAMKLLSKFEMIKRSDSAFFWEERDIMAFANSPWVVQLFYAFQDDRYLYMVMEYMPGGDLVNLMSNYDVPEKWARFYTAEVVLALDAIHSMGFIHRDVKPDNMLLDKSGHLKLADFGTCMKMNKEGMVRCDTAVGTPDYISPEVLKSQGGDGYYGRECDWWSVGVFLYEMLVGDTPFYADSLVGTYSKIMNHKNSLTFPDDNDISKEAKNLICAFLTDREVRLGRNGVEEIKRHLFFKNDQWAWETLRDTVAPVVPDLSSDIDTSNFDDLEEDKGEEETFPIPKAFVGNQLPFVGFTYYSNRRYL”: “soluble”; “MSTIHEFPKNYERFIAQGEEALVEHNQIAALENFQQAYQLQQTPPVNQKIVQLLLEMGEADEALALAEAFQESYFENLETAAIYMQIYSQSRRFIEGYILLKQLLQTKKITLAQQKTLEQQLMQVEEAYQQLETQQIQAIKRNLLVSDQLPVYQQLANIKTSLYLPKPVFVEVAKDLVMNQALSYFAREWFIEELALLQFSEPLTFLWYDNQPQTVLLEGKTGPLNTPIYSEICTELRNRLENDDPIMLQHLEEEIRLHLAYLYPLAETVISDPTIWVLGYLATYYPEYIEKELTEAKGHQIDAVQKVQQAIRTAFTQIML”: “soluble”. Consider “MSTKADMAIAFHDKGYNCAQAVACSFCQEFGVAEEEMFRIAEGFGLGMGMMEVCGALSGMMMIIGLENSVGEPEKGRLTKGDTYRKVKEYVKKFQEQNGSYLCRELKGVETGKVLRSCPDCIRDAVALTEEYLAAQKQN”, for which the “soluble on expression in E. coli” value is given as “not soluble”. For “MSTKVKKTTQLKQMLNSKDLEFIMEAHNGLSARIVQEAGFKGIWGSGLSVSAQLGVRDSNEASWTQVVEVLEFMSDASDVPILLDADTGYGNFNNARRLVRKLEDRGVAGACLEDKLFPKTNSLHDGRAQPLADIEEFALKIKACKDSQTDPDFCIVARVEAFIAGWGLDEALKRAEAYRNAGADAILMHSKKADPSDIEAFMKAWNNQGPVVIVPTKYYKTPTDHFRDMGVSMVIWANHNLRASVSAIQQTTKQIYDDQSLVNVEDKIVSVKEIFRLQRDDELVQAEDKYLPKN”, the “soluble on expression in E. coli” value is given as “soluble”. Next, “MSTLGHQYDNSLVSNAFGFLRLPMNFQPYDSDADWVITGVPFDMATSGRAGGRHGPAAIRQVSTNLAWEHNRFPWNFDMRERLNVVDCGDLVYAFGDAREMSEKLQAHAEKLLAAGKRMLSFGGDHFVTLPLLRAHAKHFGKMALVHFDAHTDTYANGCEFDHGTMFYTAPKEGLIDPNHSVQIGIRTEFDKDNGFTVLDACQVNDRSVDDVIAQVKQIVGDMPVYLTFDIDCLDPAFAPGTGTPVIGGLTSDRAIKLVRGLKDLNIVGMDVVEVAPAYDQSEITALAAATLALEMLYIQAAKKGE”: “soluble”.
